According to US20260151389A1, “Use of Tetramethylpyrazine Nitrone Derivatives In The Treatment of Ischemic Stroke” (GUANGZHOU MAGPIE PHARMACEUTICALS CO., L.T.D., priority 2021, published 2026):

System: patients with acute ischemic stroke
Assay: multicenter, randomized, double-blind, parallel clinical trial in acute ischemic stroke
Assay type: in vivo, human
Details: thrombolytic group
Text: The present invention adopts a multicenter, randomized, double-blind, parallel trial clinical research design. The patients with acute ischemic stroke included in the clinical trial-center as subjects (all signed informed consent forms) were divided into non-thrombolytic group and thrombolytic group. The non-thrombolytic group consists of the saline group and the TBN group. The thrombolytic group consists of the t-PA group and the combination group of TBN+t-PA.
Subjects of the tests: Patients diagnosed with acute ischemic stroke were selected by clinical trial centers based on the diagnostic criteria of “Chinese Guidelines for the Diagnosis and Treatment of Acute Ischemic Stroke (2018)”.
Administration method: TBN (1400 mg) is dissolved in a sodium chloride injection bag (specification: 100 mL) and administered intravenously for 30 minutes. Dose of t-PA: 0.9 mg/Kg/dose; usage: added to physiological saline, 10% of the dose is administered via injected intravenous injection immediately within 1-2 minutes, and the remaining 90% is administered via intravenous drop infusion within 60 minutes. t-PA is administered only once on the first day of acute ischemic stroke. The medication schedule of TBN: D1-D7 administered twice a day, with an interval of 12 hours, for 7 consecutive days.

B1: t-PA: tissue type plasminogen activator ateplase (t-PA), thrombolytic drug (protein, UniProt P00750 36-562, looked up)
Tissue-type plasminogen …: SYQVICRDEKTQMIYQQHQSWLRPVLRSNRVEYCWCNSGRAQCHSVPVKSCSEPRCFNGGTCQQALYFSDFVCQCPEGFAGKCCEIDTRATCYEDQGISYRGTWSTAESGAECTNWNSSALAQKPYSGRRPDAIRLGLGNHNYCRNPDRDSKPWCYVFKAGKYSSEFCSTPACSEGNSDCYFGNGSAYRGTHSLTESGASCLPWNSMILIGKVYTAQNPSAQALGLGKHNYCRNPDGDAKPWCHVLKNRRLTWEYCDVPSCSTCGLRQYSQPQFRIKGGLFADIASHPWQAAIFAKHRRSPGERFLCGGILISSCWILSAAHCFQERFPPHHLTVILGRTYRVVPGEEEQKFEVEKYIVHKEFDDDTYDNDIALLQLKSDSSRCAQESSVVRTVCLPPADLQLPDWTECELSGYGKHEALSPFYSERLKEAHVRLYPSSRCTSQHLLNRTVTDNMLCAGDTRSGGPQANLHDACQGDSGGPLVCLNDGRMTLVGIISWGLGCGQKDVPGVYTKVTNYLDWIRDNMRP
With B1 as the molecule, how does the “efficacy after 90 days compared with after 30 days of treatment” value read?
Its value is “no significant difference in efficacy”.

And the “Lsmeans mRS” value (90th day)?
The value was 1.61.
